Experimental data taken from the Human Domainome abundance scans (Beltran et al. 2025).
± gives the uncertainty stated by the source.

B1: Zinc finger MYM-type protein 3, residues 589 to 668; numbered along this chain, Q14202 (parent)
chain: LSCHYCHSLFSGKPEVLDWQDQVFQFCCRDCCEDFKRLRGVVSQCEHCRQEKLLHEKLRFSGVEKSFCSEGCVLLYKQDF

Variants of: B1
Experiment: abundance fitness (aPCA) (normalised: wild type 0, dead -1); higher = more abundant; growth selection in yeast, the domain comes from the species named
Details: Homo sapiens

Variant	abundance fitness
LSGHYCHSLFSGKPEVLDWQDQVFQFCCRDCCEDFKRLRGVVSQCEHCRQEKLLHEKLRFSGVEKSFCSEGCVLLYKQDF [C3G]	-1.01 ± 0.088
LSEHYCHSLFSGKPEVLDWQDQVFQFCCRDCCEDFKRLRGVVSQCEHCRQEKLLHEKLRFSGVEKSFCSEGCVLLYKQDF [C3E]	-0.823 ± 0.078
LSHHYCHSLFSGKPEVLDWQDQVFQFCCRDCCEDFKRLRGVVSQCEHCRQEKLLHEKLRFSGVEKSFCSEGCVLLYKQDF [C3H]	-1.17 ± 0.42
LSAHYCHSLFSGKPEVLDWQDQVFQFCCRDCCEDFKRLRGVVSQCEHCRQEKLLHEKLRFSGVEKSFCSEGCVLLYKQDF [C3A]	-0.906 ± 0.078
LSDHYCHSLFSGKPEVLDWQDQVFQFCCRDCCEDFKRLRGVVSQCEHCRQEKLLHEKLRFSGVEKSFCSEGCVLLYKQDF [C3D]	-1.04 ± 0.13
LSQHYCHSLFSGKPEVLDWQDQVFQFCCRDCCEDFKRLRGVVSQCEHCRQEKLLHEKLRFSGVEKSFCSEGCVLLYKQDF [C3Q]	-0.998 ± 0.1
LSRHYCHSLFSGKPEVLDWQDQVFQFCCRDCCEDFKRLRGVVSQCEHCRQEKLLHEKLRFSGVEKSFCSEGCVLLYKQDF [C3R]	-0.949 ± 0.063
LSKHYCHSLFSGKPEVLDWQDQVFQFCCRDCCEDFKRLRGVVSQCEHCRQEKLLHEKLRFSGVEKSFCSEGCVLLYKQDF [C3K]	-0.837 ± 0.097
LSVHYCHSLFSGKPEVLDWQDQVFQFCCRDCCEDFKRLRGVVSQCEHCRQEKLLHEKLRFSGVEKSFCSEGCVLLYKQDF [C3V]	-0.871 ± 0.074
LSFHYCHSLFSGKPEVLDWQDQVFQFCCRDCCEDFKRLRGVVSQCEHCRQEKLLHEKLRFSGVEKSFCSEGCVLLYKQDF [C3F]	-0.63 ± 0.11
LSLHYCHSLFSGKPEVLDWQDQVFQFCCRDCCEDFKRLRGVVSQCEHCRQEKLLHEKLRFSGVEKSFCSEGCVLLYKQDF [C3L]	-0.896 ± 0.065
LSMHYCHSLFSGKPEVLDWQDQVFQFCCRDCCEDFKRLRGVVSQCEHCRQEKLLHEKLRFSGVEKSFCSEGCVLLYKQDF [C3M]	-0.505 ± 0.077
LSPHYCHSLFSGKPEVLDWQDQVFQFCCRDCCEDFKRLRGVVSQCEHCRQEKLLHEKLRFSGVEKSFCSEGCVLLYKQDF [C3P]	-1.06 ± 0.12
LSYHYCHSLFSGKPEVLDWQDQVFQFCCRDCCEDFKRLRGVVSQCEHCRQEKLLHEKLRFSGVEKSFCSEGCVLLYKQDF [C3Y]	-0.984 ± 0.18
LSTHYCHSLFSGKPEVLDWQDQVFQFCCRDCCEDFKRLRGVVSQCEHCRQEKLLHEKLRFSGVEKSFCSEGCVLLYKQDF [C3T]	-0.936 ± 0.085
LSIHYCHSLFSGKPEVLDWQDQVFQFCCRDCCEDFKRLRGVVSQCEHCRQEKLLHEKLRFSGVEKSFCSEGCVLLYKQDF [C3I]	-1.02 ± 0.26
LSNHYCHSLFSGKPEVLDWQDQVFQFCCRDCCEDFKRLRGVVSQCEHCRQEKLLHEKLRFSGVEKSFCSEGCVLLYKQDF [C3N]	-1.11 ± 0.23

Variant	abundance fitness
LSSHYCHSLFSGKPEVLDWQDQVFQFCCRDCCEDFKRLRGVVSQCEHCRQEKLLHEKLRFSGVEKSFCSEGCVLLYKQDF [C3S]	-1.06 ± 0.098
LSCGYCHSLFSGKPEVLDWQDQVFQFCCRDCCEDFKRLRGVVSQCEHCRQEKLLHEKLRFSGVEKSFCSEGCVLLYKQDF [H4G]	0.29 ± 0.038
LSCNYCHSLFSGKPEVLDWQDQVFQFCCRDCCEDFKRLRGVVSQCEHCRQEKLLHEKLRFSGVEKSFCSEGCVLLYKQDF [H4N]	0.225 ± 0.054
LSCPYCHSLFSGKPEVLDWQDQVFQFCCRDCCEDFKRLRGVVSQCEHCRQEKLLHEKLRFSGVEKSFCSEGCVLLYKQDF [H4P]	-0.061 ± 0.048
LSCDYCHSLFSGKPEVLDWQDQVFQFCCRDCCEDFKRLRGVVSQCEHCRQEKLLHEKLRFSGVEKSFCSEGCVLLYKQDF [H4D]	0.128 ± 0.052
LSCCYCHSLFSGKPEVLDWQDQVFQFCCRDCCEDFKRLRGVVSQCEHCRQEKLLHEKLRFSGVEKSFCSEGCVLLYKQDF [H4C]	0.26 ± 0.051
LSCIYCHSLFSGKPEVLDWQDQVFQFCCRDCCEDFKRLRGVVSQCEHCRQEKLLHEKLRFSGVEKSFCSEGCVLLYKQDF [H4I]	-0.064 ± 0.073
LSCKYCHSLFSGKPEVLDWQDQVFQFCCRDCCEDFKRLRGVVSQCEHCRQEKLLHEKLRFSGVEKSFCSEGCVLLYKQDF [H4K]	0.179 ± 0.051
LSCQYCHSLFSGKPEVLDWQDQVFQFCCRDCCEDFKRLRGVVSQCEHCRQEKLLHEKLRFSGVEKSFCSEGCVLLYKQDF [H4Q]	0.088 ± 0.046
LSCFYCHSLFSGKPEVLDWQDQVFQFCCRDCCEDFKRLRGVVSQCEHCRQEKLLHEKLRFSGVEKSFCSEGCVLLYKQDF [H4F]	0.128 ± 0.072
LSCVYCHSLFSGKPEVLDWQDQVFQFCCRDCCEDFKRLRGVVSQCEHCRQEKLLHEKLRFSGVEKSFCSEGCVLLYKQDF [H4V]	0.054 ± 0.04
LSCSYCHSLFSGKPEVLDWQDQVFQFCCRDCCEDFKRLRGVVSQCEHCRQEKLLHEKLRFSGVEKSFCSEGCVLLYKQDF [H4S]	0.248 ± 0.043
LSCMYCHSLFSGKPEVLDWQDQVFQFCCRDCCEDFKRLRGVVSQCEHCRQEKLLHEKLRFSGVEKSFCSEGCVLLYKQDF [H4M]	0.227 ± 0.044
LSCRYCHSLFSGKPEVLDWQDQVFQFCCRDCCEDFKRLRGVVSQCEHCRQEKLLHEKLRFSGVEKSFCSEGCVLLYKQDF [H4R]	0.115 ± 0.038
LSCTYCHSLFSGKPEVLDWQDQVFQFCCRDCCEDFKRLRGVVSQCEHCRQEKLLHEKLRFSGVEKSFCSEGCVLLYKQDF [H4T]	0.19 ± 0.043
LSCAYCHSLFSGKPEVLDWQDQVFQFCCRDCCEDFKRLRGVVSQCEHCRQEKLLHEKLRFSGVEKSFCSEGCVLLYKQDF [H4A]	0.28 ± 0.039
LSCEYCHSLFSGKPEVLDWQDQVFQFCCRDCCEDFKRLRGVVSQCEHCRQEKLLHEKLRFSGVEKSFCSEGCVLLYKQDF [H4E]	0.174 ± 0.047
